Reference: patent CN116769021A
Like-named read-outs stand apart in the source and are kept apart here.

Assays:
[1] = biological target: AHSV VP7重组蛋白 (recombinant African horse sickness virus VP7 protein) (African horse sickness virus)
[2] = biological target: AHSV VP7重组蛋白 (recombinant African horse sickness virus VP7 protein) (African horse sickness virus); test: indirect ELISA on coated recombinant VP7 (0.5 ug/mL); 1H4 at 0.25 ug/mL (1:8000)
[3] = biological target: AHSV VP7重组蛋白 (recombinant African horse sickness virus VP7 protein) (African horse sickness virus); test: indirect ELISA on coated recombinant VP7 (0.5 ug/mL); 1H4 at 0.5 ug/mL (1:4000)
[4] = biological target: AHSV VP7重组蛋白 (recombinant African horse sickness virus VP7 protein) (African horse sickness virus); test: indirect ELISA on coated recombinant VP7 (0.5 ug/mL); 1H4 at 1 ug/mL (1:2000)
[5] = biological target: AHSV VP7重组蛋白 (recombinant African horse sickness virus VP7 protein) (African horse sickness virus); remark: listed apart in the source
[6] = biological target: AHSV VP7重组蛋白 (recombinant African horse sickness virus VP7 protein) (African horse sickness virus); test: indirect ELISA on coated recombinant VP7; end-point titer by P/N > 2.1

阴性抗体 (negative antibody)
OD450 [1]: 0.0378 OD450

B1: 抗AHSV VP7单克隆抗体1H4 (monoclonal antibody 1H4 against African horse sickness virus VP7 protein) (antibody, V domains shown)
VH: EVQLVESGGGLVQPGGSLKLSCAASGFTFSRYGMSWVRQTPDKRLELVAIIKNDGRSSYYPDSVKGRFTIYRDNAKNTLYLQMSTLKSEDTAMYHCAYGSSLYWYFDVWGAGTTVTVSS
VL: DVLMTQTPLSLPVSLGDQASISCRSSQSIVHSNGNTYLEWYLQKPGQSPKLLIYKVSNRFSGVPARFSGSGSGTGFTLKISRVEAEDLGVYYCFQGSHVPPTFGGGTKLEIK
OD450 [2]: 2.93 OD450 | OD450 [3]: 2.87 OD450 | OD450 [4]: 4.09 OD450 | OD450 [5]: 3.58 OD450 | 效价 (ELISA titer, P/N > 2.1) (dilution factor (1:x)) [6]: 1.02e+06 | 效价对应的稀释浓度 (antibody concentration at the end-point titer) [6]: 1.95 ng/mL
